Experimental data as given in the DeepSol protein solubility set.

experiment: soluble on expression in E. coli; label from the status in PepcDB or PDB records

Sequence | soluble on expression in E. coli
HKFIRTAIDMDKNRAFSSRLRQSIKDYFDMPWYLTFADAERLSDLRDEALVLRDDEVTGQVPMEVEYEEFQQVNDELSERIGDMLKAHKEQGTPIDLSVVLRDYLAQHPYTHHFDLARIIVDQAVRLGYSESDYQAIQPDWKAINEFGAKVQANVIDRY | soluble
SILELAEYTYFPPTLMASLILKNCDFSRKSINWLFKHLDCIENRRLRKEVRKALNADYFFSPRAHEMQCRKGEMGEEIVRKWLDDREIAYCTEAEIRAKGDGKTPDFVLSNPIFIEDHMVSWIESKALFGDDFEHKHYAKKQFREYADIFGEGMVVYWYGFLEDLSSEDEGYLIKDYRFFEGYQEQTDEL | soluble
GHMKLKTKTMEWSGNSLKLLDQRKLPFIEEYVECKTHEEVAHAIKEMIVRGAPAIGVAAAFGYVLGLRDYKTGSLTDWMKQVKETLARTRPTAVNLFWALNRMEKVFFENADRENLFEILENEALKMAYEDIEVNKAIGKNGAQLIKDGSTILTHCNAGALATVDYGTALGVIRAAVESGKRIRVFADETRPYLQGARLTAWELMKDGIEVYVITDNMAGWLMKRGLIDAVVVGADRIALNGDTANKIGTYSLAVLAKRNNIPFYVAAPVSTIDPTIRSGEEIPIEERRPEEVTHCGGNRIAPEGVKVLNPAFDVTENTLITAIITEKGVIRPPFEENIKKILEVGS | soluble
MGSLVREWVGFQQFPAATQEKLIEFFGKLKQKYLIVKMIQGAIRNDIKTSGKPL | not soluble
MFKKEKGGWFYMAGLKVEWNDWCPGCGNFGILSAEQQAIQELGLDPKKVVLVSGIGCSGKIPHFIRLPASGVHTLHGRALTFAIGIKLANPSLEVIVNGGDGDQLGIGVGHFVSAGRRNVDLTVIVHNNGVYGLTKGQASPTLKLGVKTKSLPKPNINSDINPIALAISSGYTFVARGYAYDVKHLKEIIKKAIKHKGLAMIDVLQPCPTYNDIHTKEYYDKRVYKLDEDPSWDPIVKKPEEMDDKMSKAILKSMEWGDRIPIGIFYQNELVSTYEQRIAERSPSYLDNPPAHDVIEFEGKPTTDVEDILKERRVT | not soluble
MRSKGFLHLDTEIVVPFFDVDMMNIVWHGHYVKYLEVARCALLDHIGHNYMQMLESGYGWPVIDLQLRYVRSAVFGQKLNVRASLVEWENRLKINYLITDADTGERLTRASTVQVAVDRDSHEMQLASPQVFIDAVKRALPLEHHHHHH | soluble
MNSCWAKGKLMCEGRPASGVKVKLMESDNSFLPGFLDRDDKMASGKADSNGEFNLSGSTKEITGIEPYLAVFHDCKDGITPCQRVLRINIPKSYANWGSSAEKTFNAGNLELAGKFPGETRSCFN | not soluble
SLTLNDKYPFTDEDQAIINSYKAVVDGVSALIGEHCEIVLHSLENIEHSAICIANGHNTNRQVGSPITDLALRSLRNMQSESVSKPYFTRAKGSVLMKSVTIAIRNKTQRIIGLLCININLDVPVSQFLQCFMLTEHTNETSSVNFANSVEDLVAQTIEKTIEEVNADRAVANNTKNRQIVLSLYEKGIFDIKDAINLVAERLDISRHTVYLYIRQIKQEQE | soluble
MGSDKIHHHHHHMSFDPFGDFETTGYLRNSLGLKDPAEVKENEHFSFEMGLDEALSYLERTKNLNYQALLQVHRLLFEKFYPWAGRDRLELVPHLSVWKGPKGAPRRTFFESPAMIERAVDYALSLASKKQGFMQKPGEVMGLLCFAHPFLDGNGRSILLFYMELSYRAGFAIDWASTRKDDYLQALDDEIHNPGKGHLDRYLVPFVVPIHSRDQWPEIIGQINGLDGMDGENITYENLDDPEVQKVYAAYHAEHPYPAKDGTPDSEP | not soluble
MVATAFCDNIGFFKSPTEKRCDKDYECSGTDLCGHYVCTPLSEFRKCPEDKRCGFEYSCMSGVCRYMSDFDAERRFSNFGPDMKCKDSRVCPIGLHCSNGNCV | not soluble
MNILKIRHGQGHIAKIEAQSFVDGEGVRCSLYVSGCPFACENCYNKVAQNFKYGEPFHEDTLEEIMEYCAPNYISGLSILGGEPFCNVDITLKCAQTFRKRFGNTKSLWVWTGFLFEYLERDSAERKTLLELIDVLVDGPFINHLYRPNLPYKGSMNQRVIDVQASLQKRRVCEYIKSLEHHHHHH | not soluble
MSSGLEDNLQLLGGNVTLLEQEAQKLANETKAGVYVVTTDSSTPASQMAKTYLADKVGAKNNGVVLVINMNLRKVYIWATGNLKYYLPSSRIEKTLDIVQPELTDNNYYQAVSGFFDQVSKYYQAGLEHHHHHH | not soluble
